In paper PMC4683259:
Blank lines part the entries; values can stand above or below the substance they belong to.

Experiments:
[1] = target: KV10.1 voltage-gated potassium channel, full-length form (E100) (human) (UniProt O95259)
[2] = target: KV10.1 voltage-gated potassium channel, full-length form (E100) (human) (UniProt O95259); remark: listed apart in the source
[3] = target: KV10.1 voltage-gated potassium channel, full-length form (E100) (human) (UniProt O95259); remark: listed apart in the source

Chain of UniProt O95259 (O95259 whole entry): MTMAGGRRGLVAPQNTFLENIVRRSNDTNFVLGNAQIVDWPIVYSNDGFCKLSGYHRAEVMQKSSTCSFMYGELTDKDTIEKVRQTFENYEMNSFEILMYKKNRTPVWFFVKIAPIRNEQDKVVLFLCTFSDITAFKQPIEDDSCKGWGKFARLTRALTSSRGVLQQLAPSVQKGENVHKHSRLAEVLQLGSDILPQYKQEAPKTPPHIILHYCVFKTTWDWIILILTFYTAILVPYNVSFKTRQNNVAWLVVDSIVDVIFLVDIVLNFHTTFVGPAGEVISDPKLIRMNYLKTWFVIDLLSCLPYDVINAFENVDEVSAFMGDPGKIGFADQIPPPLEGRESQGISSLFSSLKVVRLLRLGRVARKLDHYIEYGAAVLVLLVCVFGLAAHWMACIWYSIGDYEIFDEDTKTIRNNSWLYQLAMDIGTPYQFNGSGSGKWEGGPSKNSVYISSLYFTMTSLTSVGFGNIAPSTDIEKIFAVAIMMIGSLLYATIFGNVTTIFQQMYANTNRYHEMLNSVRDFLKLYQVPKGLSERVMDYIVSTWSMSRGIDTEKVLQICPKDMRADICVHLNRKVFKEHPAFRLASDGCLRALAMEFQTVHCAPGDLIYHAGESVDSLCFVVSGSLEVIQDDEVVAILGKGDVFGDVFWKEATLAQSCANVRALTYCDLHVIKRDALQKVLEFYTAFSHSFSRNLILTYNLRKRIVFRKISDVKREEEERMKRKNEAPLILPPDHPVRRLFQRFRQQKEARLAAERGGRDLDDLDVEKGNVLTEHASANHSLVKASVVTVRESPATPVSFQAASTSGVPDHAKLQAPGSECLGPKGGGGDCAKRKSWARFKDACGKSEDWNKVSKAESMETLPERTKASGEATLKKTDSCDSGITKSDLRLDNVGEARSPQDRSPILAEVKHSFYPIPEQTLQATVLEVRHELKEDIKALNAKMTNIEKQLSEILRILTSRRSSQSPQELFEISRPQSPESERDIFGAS

reduction of KV10.1 current amplitude, whole-cell patch clamp, HEK-KV10.1 cells transfected with E65^L405YmVenus (not statistically significant) [1]: 20.8%
Substance: E65^L405YmVenus (TCC-defective E65 fused to mVenus) (natural protein)

reduction of KV10.1 current, two-electrode voltage clamp, Xenopus oocytes co-injected with E65 and KV10.1 cRNA at a 1:10 ratio (E65 from pSGEM, no mVenus) [2]: 85%
reduction of KV10.1 current, whole-cell patch clamp, HEK293 cells stably expressing KV10.1 and transfected with E65mVenus (control mVenus alone) [3]: 41.7%
Substance: E65mVenus (KV10.1 splice variant E65 fused to mVenus) (natural protein)

reduction of KV10.1 current density at +80 mV, whole-cell patch clamp, HEK-KV10.1 cells transfected with E70^L556YmVenus [1]: 45.3%
Substance: E70^L556YmVenus (TCC-defective E70 fused to mVenus) (natural protein)

reduction of KV10.1 current, two-electrode voltage clamp, Xenopus oocytes co-injected with E70 and KV10.1 cRNA at a 1:10 ratio (E70 from pSGEM, no mVenus) [2]: 60%
reduction of KV10.1 current, whole-cell patch clamp, HEK293 cells stably expressing KV10.1 and transfected with E70mVenus (control mVenus alone) [3]: 53.8%
Substance: E70mVenus (KV10.1 splice variant E70 fused to mVenus) (natural protein)
